Laboratory results from article PMC3064480.

Legend:
[1] = biological target: Recombinant human TβRI-ED (residues 1-101) (human); experiment: ELISA
[2] = biological target: Recombinant human TβRII-ED (residues 1-137) (human); experiment: ELISA
Chain of Recombinant human TβRII-ED (residues 1-137) (human) (P37173 whole entry, the tested form may be a part): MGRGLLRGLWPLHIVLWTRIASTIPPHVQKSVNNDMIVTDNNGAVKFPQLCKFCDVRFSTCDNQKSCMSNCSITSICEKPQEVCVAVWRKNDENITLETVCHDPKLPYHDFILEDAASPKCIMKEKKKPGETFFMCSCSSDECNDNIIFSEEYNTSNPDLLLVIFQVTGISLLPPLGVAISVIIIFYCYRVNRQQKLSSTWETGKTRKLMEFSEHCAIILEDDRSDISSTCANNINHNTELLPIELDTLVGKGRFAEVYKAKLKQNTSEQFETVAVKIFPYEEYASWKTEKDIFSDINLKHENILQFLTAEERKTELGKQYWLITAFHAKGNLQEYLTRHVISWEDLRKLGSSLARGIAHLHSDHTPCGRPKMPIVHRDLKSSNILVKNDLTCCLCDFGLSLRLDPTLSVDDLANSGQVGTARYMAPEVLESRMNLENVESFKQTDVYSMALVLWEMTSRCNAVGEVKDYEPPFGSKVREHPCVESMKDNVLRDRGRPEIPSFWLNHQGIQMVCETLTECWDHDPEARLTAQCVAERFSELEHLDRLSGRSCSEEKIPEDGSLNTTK

Binder	IC50 [1]	Kd [1]	IC50 [2]	Kd [2]
LTGKNFPMFHRN [Pep1 (synthetic peptide …)]	110 µM	10 µM	156 µM	10 µM
MHRMPSFLPTTL [Pep2 (synthetic peptide …)]	256 µM	10 µM	274 µM	10 µM
LTGKNFPMFHRN [phage clone 1 (M13 phage displaying … on the N-terminus of the PIII protein)]		0.0001 µM		
MHRMPSFLPTTL [phage clone 2 (M13 phage displaying … on the N-terminus of the PIII protein)]		0.0001 µM		
